# According to article PMC2723102 (2009):
# Where no end group is shown, it is not given here. [ ]: non-standard residue; d: D form. pY = N[C@@H](Cc1ccc(OP(=O)(O)O)cc1)C(=O)O; pT = C[C@@H](OP(=O)(O)O)[C@H](N)C(=O)O
# T1: GST-X11β (domain)
# T1 chain: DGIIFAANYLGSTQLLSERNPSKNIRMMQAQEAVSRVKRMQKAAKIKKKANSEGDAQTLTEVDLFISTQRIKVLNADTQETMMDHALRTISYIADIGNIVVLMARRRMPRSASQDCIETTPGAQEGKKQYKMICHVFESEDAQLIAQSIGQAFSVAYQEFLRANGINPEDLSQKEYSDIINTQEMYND
# T2: GST-NUMB-p71 (region with the PTB domain)
# T2 chain: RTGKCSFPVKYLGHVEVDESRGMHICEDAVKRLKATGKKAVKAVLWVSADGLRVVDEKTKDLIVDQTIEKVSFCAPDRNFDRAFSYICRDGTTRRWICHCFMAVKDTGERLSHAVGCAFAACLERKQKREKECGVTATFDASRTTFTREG
# Assays:
# Test in all cases: SPR
# [1] = molecular target: GST-Grb2 domain (GST-SH2 recombinant protein)
# GST-X11β (domain) = molecular target: T1, GST-X11β (domain)
# [2] = molecular target: T2, GST-NUMB-p71 (region with the PTB …)
# Chain of GST-Grb2 domain (GST-SH2 recombinant protein) (chain, as listed by the source): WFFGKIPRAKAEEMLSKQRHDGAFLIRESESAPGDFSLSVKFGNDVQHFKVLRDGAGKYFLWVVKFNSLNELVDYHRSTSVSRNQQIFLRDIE
Kd [1],Kd (GST-X11β (domain)),Kd [2],Binder
2.57 nM,–,–,"VMLKKKQYTSIHHGVVEVDAAVTPEERHLSKMQQNG[pY]ENPTYKFFEQMQN (also: strep-tag, place not given here) [strep-tag AID peptide phosphorylated on Tyr-682]"
–,33.5 nM,–,"VMLKKKQYTSIHHGVVEVDAAV[pT]PEERHLSKMQQNGYENPTYKFFEQMQN (also: strep-tag, position not given here) [strep-tag AID peptide phosphorylated on Thr-668]"
0.413 nM,13.1 nM,–,"VMLKKKQYTSIHHGVVEVDAAV[pT]PEERHLSKMQQNG[pY]ENPTYKFFEQMQN (also: strep-tag, place not given here) [strep-tag AID peptide phosphorylated on Thr-668 and Tyr-682]"
–,8.48 nM,105 nM,"VMLKKKQYTSIHHGVVEVDAAVTPEERHLSKMQQNGYENPTYKFFEQMQN (also: strep-tag, position not given here) [strep-tag AID peptide (APP intracellular domain, last 50 amino acids of APP), non-phosphorylated]"
